Reference: paper PMC11996885, “Identification of potent biparatopic antibodies targeting FGFR2 fusion–driven cholangiocarcinoma” (The Journal of Clinical Investigation, 2025)
Each block holds one binder with its values, some of them ahead of it.

Legend:
[1] = target: T1, hFGFR2 ECD 22-378 His-tag (Homo sapiens, UniProt P21802-3, biotin in the epitope binning only (Abcam Biotinylation Kit)); experiment: BLI; Octet RED96e, 25°C, 1x kinetic buffer; antibodies captured on Anti-Human Fc capture biosensor at 0.5 μg/mL; hFGFR2 ECD 22-378 His-tag as analyte, 2-fold dilutions from 100 nM; 1:1 binding model; apparent affinity; details: both partners purified
T1 construct: human FGFR2 extracellular domain, residues 22-378; The antigen of the MSD-SET assay and the FGFR2 ECD of the SEC-MALS experiment are not described; also called hFGFR2 ECD AA22-AA378 His-tag; antigen; source: bought: SinoBiological
T1 sequence (P21802 other isoform, or with tags, fused parts or gaps): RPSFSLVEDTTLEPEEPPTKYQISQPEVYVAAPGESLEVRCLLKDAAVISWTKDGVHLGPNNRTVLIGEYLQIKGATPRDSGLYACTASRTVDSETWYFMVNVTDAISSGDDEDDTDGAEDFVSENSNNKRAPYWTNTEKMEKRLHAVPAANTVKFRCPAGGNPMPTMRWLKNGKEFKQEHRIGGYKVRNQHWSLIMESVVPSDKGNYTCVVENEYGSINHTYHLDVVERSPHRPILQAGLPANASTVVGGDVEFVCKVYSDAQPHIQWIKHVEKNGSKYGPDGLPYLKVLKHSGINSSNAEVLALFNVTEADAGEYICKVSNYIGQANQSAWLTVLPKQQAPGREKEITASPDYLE

[2] = target: T2, full-length FGFR2-BICC1 on NIH3T3 cells (Homo sapiens, UniProt P21802-3, chimera); experiment: flow cytometry on cells; NIH3T3 cells expressing full-length FGFR2-BICC1 or its D1, D2, D3 or D2+D3 deletion variants, parental antibody A-F at 10 μg/mL in 1x PBS (Mg2+ free), 1.5 hours at room temperature; anti-human IgG secondary antibody; details: one partner purified
T2 construct: FGFR2 part of the fusion, from its N-terminus with the extracellular domain to the breakpoint; the printed Gln361 fits the IIIb isoform (FGFR2b); BICC1 part of the fusion; also called FL; source: NIH3T3, transfected, on cells
T2 sequence (P21802 whole entry, looked up, stated change not applied, the tested form may be a part, canonical isoform): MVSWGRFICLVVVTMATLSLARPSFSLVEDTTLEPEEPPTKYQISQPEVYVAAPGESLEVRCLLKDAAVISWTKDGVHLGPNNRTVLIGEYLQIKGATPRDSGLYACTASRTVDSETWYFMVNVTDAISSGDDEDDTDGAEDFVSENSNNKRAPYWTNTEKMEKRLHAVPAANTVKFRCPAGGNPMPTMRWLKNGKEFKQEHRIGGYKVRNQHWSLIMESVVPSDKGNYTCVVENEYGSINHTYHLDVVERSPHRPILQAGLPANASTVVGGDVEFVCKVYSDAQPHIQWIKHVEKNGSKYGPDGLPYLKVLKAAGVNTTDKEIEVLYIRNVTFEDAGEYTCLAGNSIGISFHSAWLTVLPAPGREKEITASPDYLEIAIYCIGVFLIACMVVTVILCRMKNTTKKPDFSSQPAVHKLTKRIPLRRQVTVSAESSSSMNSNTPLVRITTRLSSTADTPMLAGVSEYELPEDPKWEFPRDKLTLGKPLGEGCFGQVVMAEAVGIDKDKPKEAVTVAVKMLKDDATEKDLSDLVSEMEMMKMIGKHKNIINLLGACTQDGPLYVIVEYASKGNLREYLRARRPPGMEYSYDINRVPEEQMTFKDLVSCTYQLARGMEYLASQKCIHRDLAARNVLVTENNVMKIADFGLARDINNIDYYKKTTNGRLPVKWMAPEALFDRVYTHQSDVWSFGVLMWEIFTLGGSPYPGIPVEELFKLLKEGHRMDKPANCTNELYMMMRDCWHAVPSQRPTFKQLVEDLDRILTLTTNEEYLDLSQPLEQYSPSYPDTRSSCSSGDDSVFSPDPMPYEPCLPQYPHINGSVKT

[3] = target: T3, FGFR2 on SNU16 cells (FGFR2 amplification) (Homo sapiens (SNU-16, endogenous), UniProt P21802-3); experiment: flow cytometry on cells; SNU-16 cells incubated with serial dilutions of parental antibody A-F in 1x PBS (Mg2+ free), 1.5 hours at room temperature; anti-human IgG secondary antibody; fit with a ligand-binding quadratic equation; apparent Kd; details: one partner purified
T3 construct: FGFR2 endogenous on SNU16 cells; source: endogenous, SNU16 cells
T3 sequence (P21802 22-821): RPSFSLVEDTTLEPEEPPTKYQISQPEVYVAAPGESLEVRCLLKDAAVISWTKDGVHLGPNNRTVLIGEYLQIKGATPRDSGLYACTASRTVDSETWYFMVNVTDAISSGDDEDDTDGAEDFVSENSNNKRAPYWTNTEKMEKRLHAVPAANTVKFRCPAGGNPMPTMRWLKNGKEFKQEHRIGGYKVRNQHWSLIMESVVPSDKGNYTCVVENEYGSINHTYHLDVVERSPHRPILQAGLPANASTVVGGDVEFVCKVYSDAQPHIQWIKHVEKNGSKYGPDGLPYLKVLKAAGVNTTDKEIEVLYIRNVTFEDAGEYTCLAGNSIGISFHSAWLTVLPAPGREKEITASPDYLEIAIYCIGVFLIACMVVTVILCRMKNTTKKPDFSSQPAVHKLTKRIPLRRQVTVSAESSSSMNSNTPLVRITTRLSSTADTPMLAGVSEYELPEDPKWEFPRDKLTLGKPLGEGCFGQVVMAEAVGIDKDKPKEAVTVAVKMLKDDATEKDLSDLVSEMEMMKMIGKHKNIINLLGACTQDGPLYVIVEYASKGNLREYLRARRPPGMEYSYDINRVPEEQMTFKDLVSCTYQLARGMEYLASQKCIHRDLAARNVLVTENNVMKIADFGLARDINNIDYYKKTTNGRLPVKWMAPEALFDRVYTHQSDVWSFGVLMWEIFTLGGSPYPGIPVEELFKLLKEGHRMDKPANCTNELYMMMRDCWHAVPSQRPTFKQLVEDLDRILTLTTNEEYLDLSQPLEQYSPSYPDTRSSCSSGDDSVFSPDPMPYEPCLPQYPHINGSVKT

[4] = target: T4, hFGFR2 ECD 22-378 His-tag (human, UniProt P21802-3, biotin (Abcam Biotinylation Kit) in the epitope binning only); experiment: BLI; Octet RED96e, 25°C, 1,000 rpm, 1x kinetic buffer; antibodies captured on anti-human Fc (AHC) biosensors at 0.5 ug/mL; hFGFR2 ECD 22-378 His-tag as analyte, 7 2-fold dilutions from 100 nM; association 300 s, dissociation 600 s; 1:1 model, global fit; apparent Kd for the biparatopic antibodies; details: both partners purified
T4 construct: human FGFR2 extracellular domain, residues 22-378, SinoBiological 16485-H08H; also called hFGFR2 ECD AA22-AA378 His-tag; source: bought: SinoBiological
T4 sequence (P21802 other isoform, or with tags, fused parts or gaps): as the sequence (P21802 other isoform, or with tags, fused parts or gaps) above

[5] = target: T5, hFGFR2 ECD 22-378 His-tag (Homo sapiens, UniProt P21802-3); experiment: BLI; Octet RED96e, 25 C, 1,000 rpm, 1x kinetic buffer; antibody captured on anti-human Fc (AHC) biosensor at 0.5 ug/mL; hFGFR2 ECD 22-378 His-tag as analyte, 7 two-fold dilutions from 100 nM; 1:1 model, global fit; apparent; details: both partners purified
T5 construct: FGFR2, human, extracellular domain residues 22-378 (SinoBiological 16485-H08H); Analyte of the BLI kinetics; also called hFGFR2 ECD AA22-AA378 His-tag; source: bought: SinoBiological

B1: FGFR2 parental antibody A (antibody, V domains shown)
VH: EVQLLESGGGLVQPGGSLRLSCAASGFTFSSYAMSWVRQAPGKGLEWVSAISGSGTSTYYADSVKGRFTISRDNSKNTLYLQMNSLRAEDTAVYYCARVRYNWNHGDWFDPWGQGTLVTVSS
VL: QSVLTQPPSASGTPGQRVTISCSGSSSNIGNNYVSWYQQLPGTAPKLLIYENYNRPAGVPDRFSGSKSGTSASLAISGLRSEDEADYYCSSWDDSLNYWVFGGGTKLTVL
notes: heavy chain of antibody A, IgG1; light chain of antibody A; IgG1; One of the six parental antibodies is the parental antibody of bemarituzumab; also called Ab-A; copies: 2 + 2
- binding result [1]: binds
- binding result [2]: binds
- binding result [3]: binds

B2: Anti-FGFR2 parental antibody C (antibody, V domains shown)
VH: QVQLVESGGGLVKPGGSLRLSCAASGFTFSSYALSWVRQAPGKGLEWVGRIRSKIDGGTTDYAAPVKGRFTISRDDSKNTLYLQMNSLKTEDTAVYYCARDRSPSDSSAFAIWGQGTLVTVSS
VL: DIELTQPPSVSVSPGQTASITCSGDNLGSQYVDWYQQKPGQAPVLVIYDDNDRPSGIPERFSGSNSGNTATLTISGTQAEDEADYYCQSWDSLSVVFGGGTKLTVL
notes: VH of antibody C; VL of antibody C; Full human IgG1; The label 'N10' in some supplementary panels probably means C; also called Ab-C; copies: 2 + 2
- Kd [4]: 7.05 nM
- koff [4]: 0.00292 s⁻¹
- kon [4]: 417000 M⁻¹ s⁻¹

B4: anti-FGFR2 parental antibody C (antibody, V domains shown)
VH: QVQLVESGGGLVKPGGSLRLSCAASGFTFSSYALSWVRQAPGKGLEWVGRIRSKIDGGTTDYAAPVKGRFTISRDDSKNTLYLQMNSLKTEDTAVYYCARDRSPSDSSAFAIWGQGTLVTVSS
VL: DIELTQPPSVSVSPGQTASITCSGDNLGSQYVDWYQQKPGQAPVLVIYDDNDRPSGIPERFSGSNSGNTATLTISGTQAEDEADYYCQSWDSLSVVFGGGTKLTVL
notes: heavy chain of antibody C; light chain of antibody C; IgG1; also called Ab-C; copies: 2 + 2
- Kd [5]: 7.05 nM

B5: Anti-FGFR2 parental antibody B (antibody, V domains shown)
VH: QIQLVQSGPELKKPGETVKISCKASGYTFTDFGMNWMKQAPGKGFKWMGWINTSTGESTYADDFKGRFAFSLETSASTAYLQINNLKNEDMATYFCARNSYYGGSYGYWGQGTTLTVSS
VL: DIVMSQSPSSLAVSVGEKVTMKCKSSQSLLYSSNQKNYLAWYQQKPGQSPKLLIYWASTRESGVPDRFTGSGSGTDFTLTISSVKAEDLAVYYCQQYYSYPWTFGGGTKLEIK
notes: VH of antibody B; VL of antibody B; Full human IgG1; also produced with F405L or K409R in the Fc for Fab-arm exchange; The label 'Gal' in some supplementary panels probably means B; also called Ab-B; copies: 2 + 2
- Kd [4]: 5.5 nM
- koff [4]: 0.000316 s⁻¹
- kon [4]: 53100 M⁻¹ s⁻¹

B7: anti-FGFR2 parental antibody B (antibody, V domains shown)
VH: QIQLVQSGPELKKPGETVKISCKASGYTFTDFGMNWMKQAPGKGFKWMGWINTSTGESTYADDFKGRFAFSLETSASTAYLQINNLKNEDMATYFCARNSYYGGSYGYWGQGTTLTVSS
VL: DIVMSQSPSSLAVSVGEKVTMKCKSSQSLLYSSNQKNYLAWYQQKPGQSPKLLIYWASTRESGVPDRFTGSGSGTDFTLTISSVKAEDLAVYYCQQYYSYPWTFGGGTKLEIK
notes: heavy chain of antibody B; light chain of antibody B; IgG1; also called Ab-B; copies: 2 + 2
- Kd [5]: 5.5 nM

B8: Anti-FGFR2 parental antibody D (antibody, V domains shown)
VH: EVQLVESGGGLVQPGGSLRLSCAASGFPFTSTGISWVRQAPGKGLEWVGRTHLGDGSTNYADSVKGRFTISADTSKNTAYLQMNSLRAEDTAVYYCARTYGIYDTYDMYTEYVMDYWGQGTLVTVSS
VL: DIQMTQSPSSLSASVGDRVTITCRASQDVDTSLAWYKQKPGKAPKLLIYSASFLYSGVPSRFSGSGSGTDFTLTISSLQPEDFATYYCQQSTGHPQTFGQGTKVEIK
notes: VH of antibody D; VL of antibody D; Full human IgG1; also produced with F405L or K409R in the Fc for Fab-arm exchange; The label 'GE' in some supplementary panels probably means D; also called Ab-D; copies: 2 + 2
- Kd [4]: 2.79 nM
- koff [4]: 0.000741 s⁻¹
- kon [4]: 282000 M⁻¹ s⁻¹

B9: anti-FGFR2 parental antibody D (antibody, V domains shown)
VH: EVQLVESGGGLVQPGGSLRLSCAASGFPFTSTGISWVRQAPGKGLEWVGRTHLGDGSTNYADSVKGRFTISADTSKNTAYLQMNSLRAEDTAVYYCARTYGIYDTYDMYTEYVMDYWGQGTLVTVSS
VL: DIQMTQSPSSLSASVGDRVTITCRASQDVDTSLAWYKQKPGKAPKLLIYSASFLYSGVPSRFSGSGSGTDFTLTISSLQPEDFATYYCQQSTGHPQTFGQGTKVEIK
notes: heavy chain of antibody D; light chain of antibody D; IgG1; also called Ab-D; copies: 2 + 2
- Kd [5]: 2.79 nM

Further lines, results first:

- binding result [2]: binds
B3: FGFR2 parental antibody C (antibody, V domains shown)
VH: QVQLVESGGGLVKPGGSLRLSCAASGFTFSSYALSWVRQAPGKGLEWVGRIRSKIDGGTTDYAAPVKGRFTISRDDSKNTLYLQMNSLKTEDTAVYYCARDRSPSDSSAFAIWGQGTLVTVSS
VL: DIELTQPPSVSVSPGQTASITCSGDNLGSQYVDWYQQKPGQAPVLVIYDDNDRPSGIPERFSGSNSGNTATLTISGTQAEDEADYYCQSWDSLSVVFGGGTKLTVL
notes: heavy chain of antibody C, IgG1; light chain of antibody C; IgG1; One of the six parental antibodies is the parental antibody of bemarituzumab; also called Ab-C; copies: 2 + 2

- binding result [2]: binds
B6: FGFR2 parental antibody B (antibody, V domains shown)
VH: QIQLVQSGPELKKPGETVKISCKASGYTFTDFGMNWMKQAPGKGFKWMGWINTSTGESTYADDFKGRFAFSLETSASTAYLQINNLKNEDMATYFCARNSYYGGSYGYWGQGTTLTVSS
VL: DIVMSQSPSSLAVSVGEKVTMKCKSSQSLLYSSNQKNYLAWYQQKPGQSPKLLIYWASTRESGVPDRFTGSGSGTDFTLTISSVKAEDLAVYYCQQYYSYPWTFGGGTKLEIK
notes: heavy chain of antibody B, IgG1; light chain of antibody B; IgG1; One of the six parental antibodies is the parental antibody of bemarituzumab; also called Ab-B; copies: 2 + 2

- binding result [2]: binds
B10: FGFR2 parental antibody D (antibody, V domains shown)
VH: EVQLVESGGGLVQPGGSLRLSCAASGFPFTSTGISWVRQAPGKGLEWVGRTHLGDGSTNYADSVKGRFTISADTSKNTAYLQMNSLRAEDTAVYYCARTYGIYDTYDMYTEYVMDYWGQGTLVTVSS
VL: DIQMTQSPSSLSASVGDRVTITCRASQDVDTSLAWYKQKPGKAPKLLIYSASFLYSGVPSRFSGSGSGTDFTLTISSLQPEDFATYYCQQSTGHPQTFGQGTKVEIK
notes: heavy chain of antibody D, IgG1; light chain of antibody D; IgG1; One of the six parental antibodies is the parental antibody of bemarituzumab; also called Ab-D; copies: 2 + 2

- binding result [1]: binds
- binding result [2]: binds
- binding result [3]: binds
B11: FGFR2 parental antibody E (antibody, V domains shown)
VH: QVQLVQSGAEVKKPGSSVKVSCKASGYIFTTYNVHWVRQAPGQGLEWIGSIYPDNGDTSYNQNFKGRATITADKSTSTAYMELSSLRSEDTAVYYCARGDFAYWGQGTLVTVSS
VL: DIQMTQSPSSLSASVGDRVTITCKASQGVSNDYAWYQQKPGKAPKLLIYSASYRYTGVPSRFSGSGSGTDFTFTISSLQPEDIATYYCQQHSTTPYTFGQGTKLEIK
notes: heavy chain of antibody E, IgG1; light chain of antibody E; IgG1; One of the six parental antibodies is the parental antibody of bemarituzumab; Also used as the FGFR2 immunoblot reagent (Genscript); also called Ab-E; copies: 2 + 2

- binding result [1]: binds
- binding result [2]: binds
- binding result [3]: binds
B12: FGFR2 parental antibody F (antibody, V domains shown)
VH: QVQLVQSGAEVKKPGESLKISCKGSGYSFTNYYIHWVRQMPGKGLEWMGAIYPDNSDTTYSPSFQGQVTISADKSISTAYLQWSSLKASDTAMYYCARGADIWGQGTLVTVSS
VL: DIQMTQSPSSLSASVGDRVTITCRASQDIDPYLSNWYQQKPGKAPKLLIYDASNLQSGVPSRFSGSGSGTDFTLTISSLQPEDFATYYCQQTTSHPYTFGQGTKVEIK
notes: heavy chain of antibody F, IgG1; light chain of antibody F; IgG1; One of the six parental antibodies is the parental antibody of bemarituzumab; also called Ab-F; copies: 2 + 2
